This is an account of results in a protein production outcome set (Wang et al. 2014).

The nature of the series: label from the status in PepcDB records.
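Further: failed if final PepcDB status was selected cloned or expressed and not failed if soluble or beyond.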

Regarding “MSKPHALRGVLANLISESQSPLTPESIIREFRATSDRRLPACDLIKVLVSISEKRPNFAEVTKEISHILQNKDPMYALLVFVERYSECKPVSESSSSTSLSAMGLPHGNKTSDVNSAAGSVPTTLAIASTSTILTTSQNVSGSTRLSLTQSQDFPTSTPVNCKKATESDTTPVVFVRRGPMDRNRGAGKDERNDLSVIKERVLNAVSDQSLSGYRSVTNKTGNSPKSMPNDLVTLTDVPDEYRTHLLWEYYKVDGDKVPRAEIAAMPLLSQESMLLDELLHCLTGIRESLLVPQKPIISAVGLAKYDTDFDIHTHLDRSLTHQVREILPLASYFMGVQKIIAATDGLGQVMNSLNEALQELTHDFYLIIVQAEQELRHNRLTLQKLLYYLQPTMWVMHEVWSSLVIIQLSDSRDAEVLTYLHERIKRLEGNKDAQQLIIGLVRKAAKPYMRMLQMWIQKGVIVDRHREFLVVDNEVIHRDELPEHYSDDYWERRYTLRDEQIPSFLAKYSDKILRTGKYLNVIRQCGKRVMPTQEMNLEFDPTSERHVSVINDAYYFAARMLLDVLLTENDLMGHLQSVKRYLLLNQGDFTMQFMDACEDELTKNVDHVLPMTLENLLGLTLRISSARNDPYKDDLHCELLPYDLVTQMSKIMKKEENWQAQPRLDLSGLECFAFTYEVKWPCSLVLNHISISKYQMLFRQLFYCKHVERQLCKIWKENSIARQFEPQAASLYRAAFTLRQRMMNAIQNLEYYMMIEIIEPNWHIFIEKMKTVENVDNVLRLHQDFLDSCLKNCMLTESSHLNRSIFKLCKICLKYCEFIQITQRYFQDAELRSMVRDSADSSESEQESLHCPQIETPLDPTDTFSERVRRFDLEFTQLLISFLKQINSMAKKNTADCFMNLVHRINFNAFYTDQMDKMCVEDAIG”, the protein production entry was “failed”.

In the case of “MSKPPLFFIIIIALIVVAASFRFVQQRREKAANEAAPLQQKQVVVSNKREKPVNDRRSRQQEVIPAGTSMRYEVSFKPLNGGLEKTFRLQAQQYHALTVGDQGTLSYKGTRFVGFVSRTPDNE”, the protein production result is given as “failed”.

As for “MSKQIPVQDVTPPAKGDTNNNDLYAKREKIYTRAFTGIFRRLRMVGGAALFLLYFGTVWLNWSGRQAVWWDLPERKFYIFGATFWPQDFMLLSWLLIVCAFGLFFITVFAGRVWCGYTCPQSVWTWIYMWCEKVTEGDRNQRIKLDKAPMSGNKLLRKTAKHSLWLLIGLVTGLTFVGYFSPIRELIPELLTGQADGWAYFWVGFFTLATYGNAGWLREQVCIYMCPYARFQSVMFDKDTLIVSYDPRRGEKRGPRKKSLDYKAQGLGDCIDCTMCVQVCPTGIDIRDGLQIECIGCAACIDACDSIMEKMNYPKGLISYTTEHNLNGQKTHLARPRLIGYAIALVLMISALITAVVLRPLVGFDVSKDRVLYRENELGRIENVYSLKIMNKDQQDHTYILGAKGLEGLTLEGRRELKVAAGDILNLPMELSIEPEKLPSTTNEIVFTIESADDPSIHKEAKSRFIGPRTR”, the protein production result is on record as “failed”.

In the case of “MSKQSVKKIISFSLTIIIAIVMLGLLKNLFSQSDDKALSEAIRNGAFLVDVRTPGEFASGSVAGAVNIPLDRIASRLNELKNKKTIIVFCRSGNRSSQAKSILERNGFSNVLDGGTWGHVASLKGDQ”, the protein production entry is on record as “failed”.

“MSKRANKLVIVTEKVLLKKVAKIIEEAGATGYTVVDTGGKGSRNVRSTGKPNTSDTDSNVKFEVLTENREMAEKIADQVAIKFFTDYAGIIYICEAEVLYGRTFCGPDGC”: the protein production result is reported as “not failed”.

Turning to “MSKSEEKQELPLETSPYTKYEDIEDYKKNAYGTSGHQDVKPGHGGGTTDAPTPSGDAAPSAIDSANQKAKK”, the protein production result is “failed”.

On to “MSLAADSADAGFARDMSVHHQQAVEMSYIVRDRTDDEEVRRLAYDIAQTQANQRGMMIGWLDLWALPKVSSDPPMTWMGMGDAPSAGEGSLMPGMATDAEMKKLGTLDGKQAEVYYLQLMTEHHRGGVHMAKGCVERCTVGVEKRLARGMVESQESEIRLMADLLAERGAKEGHHHHHH”, for which the protein production result is “not failed”.

With “MSLAILTTAYAKIIGLDFSYRKVSTLPIFTKKEDVILSSSHVQTIIYDPSFIADQNTFYLANPAVVIDYFPSKSHRSGIKFSLETFLAMYYKNIAADALADKDLNKSFLYANKAYQLDTDNIETINLLAVIHRRSGDLQTAEAIYKTGMDKGQTNIALLSNYIMLLKSQRRMDEVNTLQDKLNQLDDPDPYQWLGEAYTAKNVGNIKQAEIYFKKALSKAPYLNQAYMGLYKIYIKQNKLKKAQTMLVKALEWTYELDERKLYKYKLYNIEHNIAAIN”, the protein production entry is “failed”.

With “MSLAQIKSLFATRLYHAPLSEHGPALDPAEFAASCYSIAEDDDAGQEWCEREGYPGYTSYASLTDLPWRFPIFADLVKSLDAHVAAFAEDLEFELDGKALRLEDIWINILPEGGVHGSHIHPHSVISGTTYVAMPEGTSALKLEDPRLPFMMAAPTRRKGAREELRTFRSVAPKVGDVLLWESWLRHEVPMNMAEEDRISVSFNYAWGEGHHHHHH”, the protein production entry is “not failed”.

Regarding “MSLARVLLNIHGTGDTVVLALCDEDLLGVELKYKGRTLHISEPFYSGKSMEPDRAAKKIREAVQEYEDEKTVAINALGELACSVVVDAGLAREDEIGELGGVPHVQMYILPREPFLEGHHHHHH”, the protein production entry is given as “not failed”.

Take “MSLASFPVQILPNLYLGSARDSANLESLAKLGIRYILNVTPNLPNFFEKNGDFHYKQIPISDHWSQNLSRFFPEAIEFIDEALSQNCGVLVHSLAGVSRSVTVTVAYLMQKLHLSLNDAYDLVKRKKSNISPNFNFMGQLLDFERSLREGHHHHHH”: the protein production result was “not failed”.

Regarding “MSLATEGNGKVIHLTKAEFLAKVYNFEKNPEEWKYEGDKPAIVDFYADWCGPCKMVAPILDELAKEYDGQIVIYKVDTEKEQELAGAFGIRSIPSILFIPMEGKPEMAQGAMPKASFKKAIDEFLLKKEGHHHHHH”, the protein production entry is recorded as “not failed”.

As to “MSLAVKPGEPLPDFLLLDPKGQPVTPATVSKPAVIVFWASWCTVCKAEFPGLHRVAEETGVPFYVISREPRDTREVVLEYMKTYPRFIPLLASDRDRPHEVAARFKVLGQPWTFVVDREGKVVALFAGRAGREALLDALLLAGADLEGHHHHHH”, the protein production result was “not failed”.

As to “MSLDGMPAKQQHNNTGESVELHFHYPIKGKQEPKNSHLVVLIEPKIEINKVIPESYQKEFEKSLFLQLSSFLERKGYSVSQFKDASEIPQDIKEKALLVLRMDGNVAILEDIVEESDALSEEKVIDMSSGYLNLNFVEPKSEDIIHSFGIDVSKIKAVIERVELRRTNSGGFVPKTFVHRIKETDHDQAIRKIMNQAYHKVMVHITKELSKKHMEHYEKVSSEMKKRKEGHHHHHH”, the protein production result is “not failed”.

On to “MSLDRLAPAIFVFLWSTGWVTAKYAVYYTGPLTFLCLRYLLAGLLLWAICRFSGISWPKQRADVLRAILSGVFLHGIYLGMIWWAIGQGVPAAIGGIIAGLQPLMTAVAARFMIGERISPLQRAGLLLGFAGIAIAVLPKVMATGALGMSVPLYAVAVNVLGMVSVTYGTLYQKKYVHGGNIMAVATLQYVGALLVTVPFALLLEDGHVDWSLGLAATLGWSVGAISIGAVALLLYLIRRGQVSRAASLIYLVPPLAAVEAAVLFGETLTPAMIAGTVLAVTGVYLANRKPAASVAVR”, for which the protein production result was “failed”.

In the case of “MSLDTGVTSVMFVERSLNEIRFWSRIMKEHSFFLRLGFRCEDTQLIEEANQFYRLFEHIEQIAHSYTNETDPEQIKRFNAEVQQAATNIWGFKRKILGLILTCKLPGQNNFPLLVDHTSREADYFRKRLIQLNEGKLDALPDAIIKENVFFLRIMADHAKFIGHLLDPSERKLVDTARNFSNDFDELMYQAIDLESMKPQSQTAPLLDQFLDQNRVSVASLRDFKKTARDLIEQCKIKSIIHPLLADHVFREADRFLEIIDMYDVHLTNIQSQPREGHHHHHH”, the protein production result was “not failed”.

For “MSLDYDLLIKNGQTVNGMPVEIAIKEKKIAAVAATISGSAKETIHLEPGTYVSAGWIDDHVHCFEKMALYYDYPDEIGVKKGVTTVIDAGTTGAENIHEFYDLAQQAKTNVFGLVNISKWGIVAQDELADLSKVQASLVKKAIQELPDFVVGIKARMSRTVIGDNGITPLELAKQIQQENQEIPLMVHIGSAPPHLDEILALMEKGDVLTHCFNGKENGILDQATDKIKDFAWQAYNKGVVFDIGHGTDSFNFHVAETALREGMKAASISTDIYIRNRENGPVYDLATTMEKLRVVGYDWPEIIEKVTKAPAENFHLTQKGTLEIGKDADLTIFTIQAEEKTLTDSNGLTRVAKEQIRPIKTIIGGQIYDNEGHHHHHH”, the protein production result is on record as “not failed”.

As to “MSLEEELRRETLKWLERIEERVKEIEGDEGFMRNIEAYISDSRYFLEKGDLVRAFECVVWAWAWLEIGLEVGKLHETAEGHHHHHH”, the protein production entry is reported as “not failed”.

With “MSLEERVKEIIAEQLGVEKEKITPEAKFVEDLGADSLDVVELIMAFEEEFGIEIPDEDAEKIQTVGDVINYLKEKVGG”, the protein production entry is given as “not failed”.

In the case of “MSLFEQLDELAAQGKPAALLTIVRKDGSAPRDVGDKMIVTADEEYGTIGGGTVEHLAVQDARSVLSGADDPGIRTYELERGGNTGMVCGGEMDVFIDHVRGQAQLYIAGGGHISVELAPLAERLGYAVTVVDDREAYADPTQFPDETDVIHGEYGEALGDLPMGTETAVAVATRSGTFDQAAVAAALDGEAGYVGLVASETKANHVLDSLAESGYARRDLSRVQTPVGLDLGGSGPAAVALSVLAEVTMDRHDATGARATRLNLDDLVVVRGGGDLGSGVVYRLQQAGFPVIVTEVDQPTVVRRAVAFGAALYEDEVEVEGVTGRAAADIDEALELLADDVVPVLVDPEATVADDLDAAVLVDAIMAKGAFDTGTRREDADVVVGMGPGFEAGEDVDAVVETDRGHELGRVFYDGLEHHHHHH”, the protein production entry is listed as “not failed”.

For the sequence “MSLFLKDDSIQIREVWNDNLQEEMDLIRDVVDDFPYVAMDTEFPGIVVRPVGTFKSNADYHYETLKTNVNILKMIQLGLTFSNEQGNLPTCGTDKYCIWQFNFREFDLDSDIFALDSIELLKQSGIDLAKNTLDGIDSKRFAELLMSSGIVLNENVHWVTFHSGYDFGYLLKLLTCQNLPDSQTDFFKLINVYFPTVYDIKHLMKFCNSLHGGLNKLAELLEVERVGICHQAGSDSLLTSCTFRKLKENFFVGPLHKYSGVLYGLGVENGQVAI”, the protein production result is given as “failed”.

Consider “MSLFRQGSQFMIIGALQLAVDCGIFIAATAAGMPAVPANLLGRIGGAMLGFWLNGRYTFAQQGDARLGWRRFRRFAAMWLTLTLISTWLLSTTVDLLGLRQAWLAKPLVEGGLAIVSFFLGRHVVYR”, for which the protein production result is listed as “failed”.

Take “MSLHDFTLADVYRRNAALFPDRTAFMVDGVRLTHRDYLARAERLASGLLRDGVHTGDRVAILSQNCSEMIELIGAVALIGAILLPVNYRLNADEIAFVLGDGAPSVVVAGTDYRDIVAGVLPSLGGVKKAYAIGDGSGPFAPFKDLASDTPFSAPEFGAADGFVIIHTAAVGGRPRGALISQGNLLIAQSSLVDAWRLTEADVNLGMLPLFHVTGLGLMLTLQQAGGASVIAAKFDPAQAARDIEAHKVTVMAEFAPMLGNILDQAAPAQLASLRAVTGLDTPETIERFEATCPNATFWATFGQSETSGLSTFAPYRDRPKSAGRPLFWRTVAVVDAEDRPLPPGEVGEIVLRGPTVFKGYWNNAAATQHAFRNGWHHTGDMGRFDADGYLFYAGRAPEKELIKTGGENVYPAEVEGALKQHPAIADAVVIGVPDPQWSEAIKAVCVCKPGESIAADALAEFVASLIARYKKPKHVVFVEALPKDAKGAIDRAAVKTAHGQEGHHHHHH”: the protein production entry is “not failed”.

Turning to “MSLHVTADAPGAAQGGYSVVTFRVPTESETAATTAMTVTLPNVRSARTEPMPGWTARVDRNDKSEAVSVTWTADPGNPGVQPGQFQRFVVSIGPLPSAETVSFPAEQTYSDGRVVAWNQPPAADGSEPEHPAPTLTLATAPGDTEGHHHHHH”, the protein production result was “not failed”.
